Experimental data from patent publication US20020146805.

Tested on: PFEK-protease T-6xHIS zymogen
Sequence (chain, as listed by the source): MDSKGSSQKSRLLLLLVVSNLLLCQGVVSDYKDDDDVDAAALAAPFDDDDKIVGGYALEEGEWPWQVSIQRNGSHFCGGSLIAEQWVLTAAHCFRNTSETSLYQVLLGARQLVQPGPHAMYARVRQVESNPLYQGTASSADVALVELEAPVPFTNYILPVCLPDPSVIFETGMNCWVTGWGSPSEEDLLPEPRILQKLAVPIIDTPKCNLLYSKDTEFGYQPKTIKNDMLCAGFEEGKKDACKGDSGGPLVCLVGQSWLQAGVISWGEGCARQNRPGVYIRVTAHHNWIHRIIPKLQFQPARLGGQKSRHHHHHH

enterokinase
cleavage of the zymogen (SDS-PAGE and anti-FLAG Western blot): quantitative cleavage of the expressed and purified zymogen to generate the processed and activated protease
